Here are results for 94 variants from the supplement of paper PMC10567573.

B1: SETD8 (parent)
chain: FVVEYHGDLIEITDAKKREALYAQ
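Also: lentivirally expressed fusions sorted by FACS into six bins by GFP to DsRed ratio, PSI derived from sequencing read proportions per bin multiplied by bin number.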

The variants in the data set derive from B1. Nature of the data set: protein stability index of a GFP-peptide fusion (GPS, HEK-293T) (PSI 1-6); higher = more stable. As to conditions: c terminus: a fixed tail appended.
For the variant FVVEYHGDLIEIPDAKKREALYAQ, the protein stability index was determined as 2.65.

For FVVEYHGDLIEIVDAKKREALYAQ, the protein stability index is 3.05. On to FVVEYHGDLIEIGDAKKREALYAQ, for which the protein stability index is 1.41.

As for FVVEYHGDLIEIADAKKREALYAQ, the protein stability index was found to be 1.73. For the variant FVVEYHGDLIEINDAKKREALYAQ, the protein stability index was 1.96. On to FVVEYHGDLIEITDAKKREAIYAQ, for which the protein stability index was determined as 1.36. For the variant FVVEYHGDLIEITDAKKREAEYAQ, the protein stability index was determined as 2.88. For FVVEYHGDLIEITDAKKREAHYAQ the value was 2.79; for FVVEYHGDLIEITDAKKREATYAQ, 1.94. For FVVEYHGDLIEITDAKKREADYAQ, the protein stability index amounted to 2.52. For the variant FVVEYHGDLIEITDAKKREAGYAQ, the protein stability index was found to be 2.05. For FVVEYHGDLIEITDAKKREAWYAQ the value was 2.22. Take FVVEYHGDLIEITDAKKREAMYAQ: the protein stability index was determined as 1.7. With FVVEYHGDLIEITDAKKREANYAQ, the protein stability index stood at 1.81. Then FVVEYHGDLIEITDAKKREAYYAQ, with 1.97. Consider FVVEYHGDLIEITDAKKREAFYAQ, for which the protein stability index amounted to 1.73. With FVVEYHGDLIEITDAKKREAVYAQ, the protein stability index came to 1.91. For FVVEYHGDLIEITDAKKREASYAQ the value was 2.36; for FVVEYHGDLIEITDAKKREACYAQ, 1.82.

Turning to FVVEYHGDLIEITDAKKREAKYAQ, the protein stability index was 2.38. Take FVVEYHGDLIEITDAKKREAQYAQ: the protein stability index turned out to be 2.21. On to FVVEYHGDLIEITDAKKREAAYAQ, for which the protein stability index was 2.01. Take FVVEYHGDLIEITDAKKREARYAQ: the protein stability index came out at 1.39. Take FVVEYHGDLIEITDAKKREAPYAQ: the protein stability index was determined as 3.09. As to FVVEYHGDLIEITDAKKRVALYAQ, the protein stability index is 1.51. For FVVEYHGDLIEITDAKKRWALYAQ the value was 1.96. Turning to FVVEYHGDLIEITDAKKRSALYAQ, the protein stability index is 1.81. For FVVEYHGDLIEITDAKKRMALYAQ, the protein stability index came out at 2.3.

With FVVEYHGDLIEITDAKKRAALYAQ, the protein stability index was found to be 2.41. For FVVEYHGDLIEITDAKKRPALYAQ, the protein stability index came to 1.84. Regarding FVVEYHGDLIEITDAKKRTALYAQ, the protein stability index is 2.42. For the variant FVVEYHGDLIEITDAKKRNALYAQ, the protein stability index stood at 1.27.

For the variant FVVEYHGDLIEITDAKKRHALYAQ, the protein stability index amounted to 1.64. As for FVVEYHGDLIEITDAKKRRALYAQ, the protein stability index was 2.84.

As for FVVEYHGDLIEITDAKKRLALYAQ, the protein stability index was determined as 3.57. On to FVVEYHGDLIEITDAKKRFALYAQ, for which the protein stability index worked out at 2.97.

Take FVVEYHGDLIEITDAKKRYALYAQ: the protein stability index worked out at 1.81. As to FVVEYHGDLIEITDAKKRKALYAQ, the protein stability index is 1.47. For the variant FVVEYHGDLIEITDAKKRCALYAQ, the protein stability index turned out to be 2.87. Turning to FVVEYHGDLIEITDAKKRDALYAQ, the protein stability index came to 1.51.

FVVEYHGDLIEITDAKKRQALYAQ: the protein stability index worked out at 1.7. Consider FVVEYHGDLIEITDAKKRGALYAQ, for which the protein stability index was found to be 1.75. Turning to FVVEYHGDLIEITDNKKREALYAQ, the protein stability index is 1.43.

Consider FVVEYHGDLIEITDEKKREALYAQ, for which the protein stability index was determined as 2.08. Then FVVEYHGDLIEITDKKKREALYAQ, with 2.33; and FVVEYHGDLIEITDGKKREALYAQ, with 2.23; and FVVEYHGDLIEITDCKKREALYAQ, with 1.67. Then FVVEYHGDLIEITDDKKREALYAQ, with 1.82; and FVVEYHGDLIEITDIKKREALYAQ, with 2.04; and FVVEYHGDLIEITDYKKREALYAQ, with 1.13. As for FVVEYHGDLIEITDLKKREALYAQ, the protein stability index was found to be 1.93. Take FVVEYHGDLIEITDVKKREALYAQ: the protein stability index stood at 2.3. As for FVVEYHGDLIEITDHKKREALYAQ, the protein stability index came out at 1.87.

Turning to FVVEYHGDLIEITDMKKREALYAQ, the protein stability index is 2.69. For FVVEYHGDLIEITDTKKREALYAQ, the protein stability index came to 1.51.

Turning to FVVEYHGDLIEITDWKKREALYAQ, the protein stability index came out at 2.37.

In the case of FVVEYHGDLIEITDQKKREALYAQ, the protein stability index came to 2.22. Take FVVEYHGDLIEITDFKKREALYAQ: the protein stability index was 2.25. For FVVEYHGDLIEITDPKKREALYAQ the value was 2.73; for FVVEYHGDLIEITDRKKREALYAQ, 3.06; for FVVEYHGDLIEITDSKKREALYAQ, 1.88. With FVVEYHGDLIEITDAKKREALKAQ, the protein stability index was 2.88. On to FVVEYHGDLIEITDAKKREALCAQ, for which the protein stability index was found to be 2.13. Turning to FVVEYHGDLIEITDAKKREALDAQ, the protein stability index stood at 2.21. Regarding FVVEYHGDLIEITDAKKREALMAQ, the protein stability index is 2.95. For FVVEYHGDLIEITDAKKREALFAQ the value was 1.79; for FVVEYHGDLIEITDAKKREALGAQ, 1.43; for FVVEYHGDLIEITDAKKREALHAQ, 1.84. Take FVVEYHGDLIEITDAKKREALPAQ: the protein stability index is 2.29. FVVEYHGDLIEITDAKKREALEAQ: the protein stability index turned out to be 2.6.

As to FVVEYHGDLIEITDAKKREALQAQ, the protein stability index amounted to 2.06. Regarding FVVEYHGDLIEITDAKKREALNAQ, the protein stability index turned out to be 3.26. Turning to FVVEYHGDLIEITDAKKREALRAQ, the protein stability index was 1.99. Consider FVVEYHGDLIEITDAKKREALLAQ, for which the protein stability index is 1.47. FVVEYHGDLIEITDAKKREALIAQ: the protein stability index stood at 1.94. For FVVEYHGDLIEITDAKKREVLYAQ the value was 1.97.

Take FVVEYHGDLIEITDAKKRELLYAQ: the protein stability index is 1.39. With FVVEYHGDLIEITDAKKRECLYAQ, the protein stability index is 2.08. With FVVEYHGDLIEITDAKKREKLYAQ, the protein stability index was found to be 1.85. On to FVVEYHGDLIEITDAKKREFLYAQ, for which the protein stability index was 1.39.

Consider FVVEYHGDLIEITDAKKRERLYAQ, for which the protein stability index was found to be 1.68. For FVVEYHGDLIEITDAKKREGLYAQ, the protein stability index was 1.75. As to FVVEYHGDLIEITDAKKREMLYAQ, the protein stability index worked out at 1.38. For the variant FVVEYHGDLIEITDAKKREELYAQ, the protein stability index was found to be 2.67. Regarding FVVEYHGDLIEITDAKKREWLYAQ, the protein stability index came out at 1.47. Regarding FVVEYHGDLIEITDAKKRETLYAQ, the protein stability index worked out at 2.06. As for FVVEYHGDLIEITDAKKREYLYAQ, the protein stability index amounted to 1.71. For FVVEYHGDLIEITDAKKRESLYAQ the value was 2.3.

For FVVEYHGDLIEITDAKKREHLYAQ, the protein stability index worked out at 2.64. On to FVVEYHGDLIEITDAKKREILYAQ, for which the protein stability index came out at 2.09. For FVVEYHGDLIEITDAKKREQLYAQ the value was 1.78; for FVVEYHGDLIEITDAKKREDLYAQ, 2.48. In the case of FVVEYHGDLIEITDAKKRENLYAQ, the protein stability index stood at 1.7. Take FVVEYHGDLIEITDAKKREPLYAQ: the protein stability index turned out to be 1.08.
